Results: patent US20060234945A1, “Ophthalmic therapeutic composition” (Nihon Tenganyaku Kenkyusho Co., LTD., priority 2002, published 2006)

Tested on: rabbit corneal wound model
Test: Corneal wound healing promotion action 1 (in vivo), approx. 6 mm corneal epithelial abrasion
Set-up: species or system Japanese white rabbit
Details: 5 μM eye drop
Procedure: (2) Corneal Wound Healing Promotion Action 1 (In Vivo)
Using a male Japanese white rabbit, a wound of approximately 6 mm in diameter was produced in the cornea by inducing corneal epithelial abrasion in accordance with the method of Cintron et al. (Ophthalmic Res., 11, pp. 90-96 (1979)). The wound area was measured using the fluorescein-stained area as an index. The effects of the test compound on corneal wound healing were examined.
The eye drops containing the respective concentrations of the test compound were instilled (30 μl at a time) at 0, 3, 6, 9, 12, 18, 24, 27, 30, 33, 36, 42, and 48 hours after inducing corneal epithelial abrasion. In measuring the wound area, fluorescein staining was carried out and a photograph of the cornea was measured. The fluorescein-stained area of the photographed cornea was computed using an image analysis processing system.
In Tables 1 and 2, the respective values indicate the mean value±standard deviation (n=6). Statistical analysis was carried out using Dunnett's multiple comparison with respect to PBS with the area of the corneal wound portion immediately after (0 hours after) corneal epithelial abrasion being set to 100% (*p<0.05, ** p<0.01; vs. control).

B1: EGF: Epidermal Growth Factor, polypeptide with a molecular weight of 6000, mitosis-promoting growth factor for corneal epithelium (protein, UniProt P01133 23-1207, looked up)
Pro-epidermal growth factor: PQHWSCPEGTLAGNGNSTCVGPAPFLIFSHGNSIFRIDTEGTNYEQLVVDAGVSVIMDFHYNEKRIYWVDLERQLLQRVFLNGSRQERVCNIEKNVSGMAINWINEEVIWSNQQEGIITVTDMKGNNSHILLSALKYPANVAVDPVERFIFWSSEVAGSLYRADLDGVGVKALLETSEKITAVSLDVLDKRLFWIQYNREGSNSLICSCDYDGGSVHISKHPTQHNLFAMSLFGDRIFYSTWKMKTIWIANKHTGKDMVRINLHSSFVPLGELKVVHPLAQPKAEDDTWEPEQKLCKLRKGNCSSTVCGQDLQSHLCMCAEGYALSRDRKYCEDVNECAFWNHGCTLGCKNTPGSYYCTCPVGFVLLPDGKRCHQLVSCPRNVSECSHDCVLTSEGPLCFCPEGSVLERDGKTCSGCSSPDNGGCSQLCVPLSPVSWECDCFPGYDLQLDEKSCAASGPQPFLLFANSQDIRHMHFDGTDYGTLLSQQMGMVYALDHDPVENKIYFAHTALKWIERANMDGSQRERLIEEGVDVPEGLAVDWIGRRFYWTDRGKSLIGRSDLNGKRSKIITKENISQPRGIAVHPMAKRLFWTDTGINPRIESSSLQGLGRLVIASSDLIWPSGITIDFLTDKLYWCDAKQSVIEMANLDGSKRRRLTQNDVGHPFAVAVFEDYVWFSDWAMPSVMRVNKRTGKDRVRLQGSMLKPSSLVVVHPLAKPGADPCLYQNGGCEHICKKRLGTAWCSCREGFMKASDGKTCLALDGHQLLAGGEVDLKNQVTPLDILSKTRVSEDNITESQHMLVAEIMVSDQDDCAPVGCSMYARCISEGEDATCQCLKGFAGDGKLCSDIDECEMGVPVCPPASSKCINTEGGYVCRCSEGYQGDGIHCLDIDECQLGEHSCGENASCTNTEGGYTCMCAGRLSEPGLICPDSTPPPHLREDDHHYSVRNSDSECPLSHDGYCLHDGVCMYIEALDKYACNCVVGYIGERCQYRDLKWWELRHAGHGQQQKVIVVAVCVVVLVMLLLLSLWGAHYYRTQKLLSKNPKNPYEESSRDVRSRRPADTEDGMSSCPQPWFVVIKEHQDLKNGGQPVAGEDGQAADGSMQPTSWRQEPQLCGMGTEQGCWIPVSSDKGSCPQVMERSFHMPSYGTQTLEGGVEKPHSLLSANPLWQQRALDPPHQMELTQ
modifications: Pro-epidermal growth factor
notes: Epidermal Growth Factor, polypeptide with a molecular weight of 6000, mitosis-promoting growth factor for corneal epithelium
Healing ratio (%) (0 hr (baseline)): 0%
Healing ratio (%) (6 hr): 14.49 ± 3.42%
Healing ratio (%) (12 hr): 31.63 ± 1.29%
Healing ratio (%) (24 hr): 70.78 ± 6.91%
Healing ratio (%) (36 hr): 96.41 ± 3.97%
Healing ratio (%) (48 hr): 99.58 ± 1.03%
